B1: RsaA, S-layer protein of Caulobacter crescentus CB15N (NA1000), full length, purified (natural protein)
chain: MAYTTAQLVTAYTNANLGKAPDAATTLTLDAYATQTQTGGLSDAAALTNTLKLVNSTTAVAIQTYQFFTGVAPSAAGLDFLVDSTTNTNDLNDAYYSKFAQENRFINFSINLATGAGAGATAFAAAYTGVSYAQTVATAYDKIIGNAVATAAGVDVAAAVAFLSRQANIDYLTAFVRANTPFTAAADIDLAVKAALIGTILNAATVSGIGGYATATAAMINDLSDGALSTDNAAGVNLFTAYPSSGVSGSTLSLTTGTDTLTGTANNDTFVAGEVAGAATLTVGDTLSGGAGTDVLNWVQAAAVTALPTGVTISGIETMNVTSGAAITLNTSSGVTGLTALNTNTSGAAQTVTAGAGQNLTATTAAQAANNVAVDGGANVTVASTGVTSGTTTVGANSAASGTVSVSVANSSTTTTGAIAVTGGTAVTVAQTAGNAVNTTLTQADVTVTGNSSTTAVTVTQTAAATAGATVAGRVNGAVTITDSAAASATTAGKIATVTLGSFGAATIDSSALTTVNLSGTGTSLGIGRGALTATPTANTLTLNVNGLTTTGAITDSEAAADDGFTTINIAGSTASSTIASLVAADATTLNISGDARVTITSHTAAALTGITVTNSVGATLGAELATGLVFTGGAGADSILLGATTKAIVMGAGDDTVTVSSATLGAGGSVNGGDGTDVLVANVNGSSFSADPAFGGFETLRVAGAAAQGSHNANGFTALQLGATAGATTFTNVAVNVGLTVLAAPTGTTTVTLANATGTSDVFNLTLSSSAALAAGTVALAGVETVNIAATDTNTTAHVDTLTLQATSAKSIVVTGNAGLNLTNTGNTAVTSFDASAVTGTGSAVTFVSANTTVGEVVTIRGGAGADSLTGSATANDTIIGGAGADTLVYTGGTDTFTGGTGADIFDINAIGTSTAFVTITDAAVGDKLDLVGISTNGAIADGAFGAAVTLGAAATLAQYLDAAAAGDGSGTSVAKWFQFGGDTYVVVDSSAGATFVSGADAVIKLTGLVTLTTSAFATEVLTLA
B2: RsaA(249-1026), the N-terminally cleaved RsaA in the crystals (domain or fragment)
chain: GSTLSLTTGTDTLTGTANNDTFVAGEVAGAATLTVGDTLSGGAGTDVLNWVQAAAVTALPTGVTISGIETMNVTSGAAITLNTSSGVTGLTALNTNTSGAAQTVTAGAGQNLTATTAAQAANNVAVDGGANVTVASTGVTSGTTTVGANSAASGTVSVSVANSSTTTTGAIAVTGGTAVTVAQTAGNAVNTTLTQADVTVTGNSSTTAVTVTQTAAATAGATVAGRVNGAVTITDSAAASATTAGKIATVTLGSFGAATIDSSALTTVNLSGTGTSLGIGRGALTATPTANTLTLNVNGLTTTGAITDSEAAADDGFTTINIAGSTASSTIASLVAADATTLNISGDARVTITSHTAAALTGITVTNSVGATLGAELATGLVFTGGAGADSILLGATTKAIVMGAGDDTVTVSSATLGAGGSVNGGDGTDVLVANVNGSSFSADPAFGGFETLRVAGAAAQGSHNANGFTALQLGATAGATTFTNVAVNVGLTVLAAPTGTTTVTLANATGTSDVFNLTLSSSAALAAGTVALAGVETVNIAATDTNTTAHVDTLTLQATSAKSIVVTGNAGLNLTNTGNTAVTSFDASAVTGTGSAVTFVSANTTVGEVVTIRGGAGADSLTGSATANDTIIGGAGADTLVYTGGTDTFTGGTGADIFDINAIGTSTAFVTITDAAVGDKLDLVGISTNGAIADGAFGAAVTLGAAATLAQYLDAAAAGDGSGTSVAKWFQFGGDTYVVVDSSAGATFVSGADAVIKLTGLVTLTTSAFATEVLTLA

How the values were obtained:
[1] = biological target: the molecule itself; assay: in vitro reconstitution of S-layer sheets, seen by cryo-EM and cryo-ET
[2] = biological target: the molecule itself; assay: crystal structure

Protein	binding result [1]	stoichiometry N [2]
B1	binds	
B2		6

Source: paper PMC5699643 (Nature microbiology, 2017)
